The Kd is the constant that tells how readily two partners part at equilibrium. Usually Ki stands for a dissociation constant, usually derived from enzyme kinetics or from competition with a known ligand. One may read the stoichiometry N as the number of molecules, sites or subunits per partner or assembly.

Where “and” joins values, the source holds several entries; their conditions need not be identical. Identical values can stand only once.

From paper PMC8479045, “Assembly defects of human tRNA splicing endonuclease contribute to impaired pre-tRNA processing in pontocerebellar hypoplasia” (Nature Communications, 2021) come the findings set out here.

In data set [1] the test system is TSEN2 H377A (inactive);TSEN34 H255A (inactive);TSEN15;TSEN54 (Homo sapiens;Homo sapiens;Homo sapiens;Homo sapiens). Kind of data set: fluorescence anisotropy. The following applies: FA: 50 mM HEPES-NaOH pH 7.4, 100 mM NaCl, 22 °C, 70 nM Cy5-RNA; EMSA: same buffer + 1 mM DTT, 4% glycerol, on ice, 10 nM RNA; pull-down: 50 mM HEPES-NaOH pH ….
The test system is the same in data set [2]. In words: competition (fluorescence anisotropy). The following applies: competitor of 3'-Cy5 pre-tRNA-Phe; FA: 50 mM HEPES-NaOH pH 7.4, 100 mM NaCl, 22 °C, 70 nM Cy5-RNA; EMSA: same buffer + 1 mM DTT, 4% glycerol, on ice, 10 nM RNA; pull-down: 50 mM HEPES-NaOH pH ….
For data set [3], the target named is T1, heterotetrameric tRNA splicing endonuclease TSEN (TSEN2–15–34–54) (human, UniProt Q8NCE0 1-465; Q8WW01 1-171; Q9BSV6 1-310; Q7Z6J9 1-526, high degree of phosphorylation (sites not given)).
T1 construct: human TSEN2, open reading frame, UniProtKB Q8NCE0; human TSEN15, open reading frame, UniProtKB Q8WW01; human TSEN34, open reading frame, UniProtKB Q9BSV6; human TSEN54, open reading frame, UniProtKB Q7Z6J9; His tags were removed with TEV protease; also called tetrameric TSEN; TSEN2–15–34–54 heterotetramer; source: Sf21 insect cells (baculovirus), co-expressed (with CLP1), purified (Ni-NTA, …)
T1 sequence (looked up) 1: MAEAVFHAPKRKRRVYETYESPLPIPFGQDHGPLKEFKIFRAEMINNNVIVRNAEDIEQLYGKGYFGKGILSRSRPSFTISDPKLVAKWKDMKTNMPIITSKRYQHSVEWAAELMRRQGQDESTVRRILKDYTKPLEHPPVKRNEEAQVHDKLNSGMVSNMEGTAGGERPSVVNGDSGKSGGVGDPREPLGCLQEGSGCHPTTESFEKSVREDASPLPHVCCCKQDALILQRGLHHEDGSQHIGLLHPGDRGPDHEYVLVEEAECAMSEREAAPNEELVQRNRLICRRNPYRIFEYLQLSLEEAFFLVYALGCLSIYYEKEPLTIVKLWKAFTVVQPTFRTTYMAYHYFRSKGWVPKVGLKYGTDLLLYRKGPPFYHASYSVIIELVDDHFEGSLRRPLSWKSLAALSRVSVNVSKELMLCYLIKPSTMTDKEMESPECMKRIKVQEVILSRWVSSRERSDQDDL
T1 sequence (looked up) 2: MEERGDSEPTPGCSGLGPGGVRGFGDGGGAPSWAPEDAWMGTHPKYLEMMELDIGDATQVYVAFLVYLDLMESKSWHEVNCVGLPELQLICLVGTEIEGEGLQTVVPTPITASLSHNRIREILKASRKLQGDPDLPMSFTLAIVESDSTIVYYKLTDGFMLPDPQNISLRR
T1 sequence (looked up) 3: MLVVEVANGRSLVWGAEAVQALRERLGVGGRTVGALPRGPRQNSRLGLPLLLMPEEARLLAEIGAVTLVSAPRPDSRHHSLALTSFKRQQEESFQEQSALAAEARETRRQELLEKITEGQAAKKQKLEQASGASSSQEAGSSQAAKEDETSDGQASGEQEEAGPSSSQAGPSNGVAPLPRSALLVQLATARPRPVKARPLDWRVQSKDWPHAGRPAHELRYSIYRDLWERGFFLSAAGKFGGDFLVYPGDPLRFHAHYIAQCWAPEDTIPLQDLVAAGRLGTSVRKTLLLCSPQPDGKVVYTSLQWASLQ
T1 sequence (looked up) 4: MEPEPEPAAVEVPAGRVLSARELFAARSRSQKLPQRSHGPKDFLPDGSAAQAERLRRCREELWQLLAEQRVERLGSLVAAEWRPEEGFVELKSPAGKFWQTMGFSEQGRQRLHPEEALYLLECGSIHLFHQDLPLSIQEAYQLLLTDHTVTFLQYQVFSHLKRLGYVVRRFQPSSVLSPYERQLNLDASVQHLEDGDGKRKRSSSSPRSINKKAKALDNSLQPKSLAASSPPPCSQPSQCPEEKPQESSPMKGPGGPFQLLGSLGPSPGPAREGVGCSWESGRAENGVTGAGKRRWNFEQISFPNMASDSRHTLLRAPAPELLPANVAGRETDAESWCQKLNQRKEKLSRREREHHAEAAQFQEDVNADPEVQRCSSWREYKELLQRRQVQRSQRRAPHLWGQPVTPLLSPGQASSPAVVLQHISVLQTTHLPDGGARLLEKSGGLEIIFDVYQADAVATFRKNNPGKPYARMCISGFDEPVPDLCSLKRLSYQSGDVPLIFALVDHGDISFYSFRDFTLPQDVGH
Kind of data set: native MS; purified wt TSEN (1.09 mg/ml) and wt TSEN/CLP1 (1.88 mg/ml) from insect cells, exchanged into 200 mM ammonium acetate pH 7.5; Q-ToF modified for high-mass complexes. Conditions: both partners purified.

Data set [4] concerns the molecule itself. In words: SEC-MALS; 330 µg TSEN15–34 complex at 1.65 mg/ml, Superdex 200 Increase, 25 mM HEPES-NaOH pH 7.5, 250 mM NaCl; heterodimer to dimer of heterodimers at high protein concentration. (In general: Size exclusion chromatography separates by hydrodynamic size, large species first.)

As for S.c. mature tRNA-Phe(GAA), 3'-Cy5, the Kd in data set [1] was determined as 149 nM.
On to S.c. pre-tRNA-Phe(GAA), 3'-Cy5, for which the Kd in data set [1] came out at 173 nM.
As for S.c. pre-tRNA-Phe(GAA), unlabeled, the Ki in data set [2] stood at 197 nM.

B1: RNA kinase CLP1 (enzyme, human, UniProt Q92989 1-425, looked up)
chain: MGEEANDDKKPTTKFELERETELRFEVEASQSVQLELLTGMAEIFGTELTRNKKFTFDAGAKVAVFTWHGCSVQLSGRTEVAYVSKDTPMLLYLNTHTALEQMRRQAEKEEERGPRVMVVGPTDVGKSTVCRLLLNYAVRLGRRPTYVELDVGQGSVSIPGTMGALYIERPADVEEGFSIQAPLVYHFGSTTPGTNIKLYNKITSRLADVFNQRCEVNRRASVSGCVINTCGWVKGSGYQALVHAASAFEVDVVVVLDQERLYNELKRDLPHFVRTVLLPKSGGVVERSKDFRRECRDERIREYFYGFRGCFYPHAFNVKFSDVKIYKVGAPTIPDSCLPLGMSQEDNQLKLVPVTPGRDMVHHLLSVSTAEGTEENLSETSVAGFIVVTSVDLEHQVFTVLSPAPRPLPKNFLLIMDIRFMDLK
notes: human CLP1, open reading frame, UniProtKB Q92989; source: Sf21 insect cells (baculovirus), co-expressed with the four TSEN subunits, purified (Ni-NTA, heparin, TEV, SEC); not shown: His6, N-terminal, cleaved
For the molecule B1, in data set [3], the “stoichiometry N” value was 1 and 2.

B2: truncated TSEN15–34 complex (TSEN15 residues 23–170 and TSEN34 residues 208–310) (complex, human)
chain 1: GFGDGGGAPSWAPEDAWMGTHPKYLEMMELDIGDATQVYVAFLVYLDLMESKSWHEVNCVGLPELQLICLVGTEIEGEGLQTVVPTPITASLSHNRIREILKASRKLQGDPDLPMSFTLAIVESDSTIVYYKLTDGFMLPDPQNISLR
chain 2: DWPHAGRPAHELRYSIYRDLWERGFFLSAAGKFGGDFLVYPGDPLRFHAHYIAQCWAPEDTIPLQDLVAAGRLGTSVRKTLLLCSPQPDGKVVYTSLQWASLQ
notes: human TSEN15, UniProtKB Q8WW01, residues 23–170; The SEC-MALS methods speak only of 'TSEN15–34 complex'; also called minimal TSEN15–34 complex; source: Sf21 insect cells (baculovirus), co-expressed, purified (Ni-NTA, TEV, SEC); not shown: His10, N-terminal, cleaved
As to B2, the “stoichiometry N” value in data set [4] was 2.
